Here are results for three molecules from article PMC7870846, “Incorporation of sensing modalities into de novo designed fluorescence-activating proteins” (Nature Communications, 2021).

Experiment in all cases: other fluorescence titration; MBP-tagged fragment titrated into its complementary MBP-tagged fragment; 25.0 uM DFHBI-1T; high-salt Tev cleavage buffer (25.0 mM Tris, 100 mM NaCl, pH 8.00); ex 468 nm, em 530 nm; estimated Kd, signal did not plateau
Holding throughout (details): both partners purified

Assay [1] deals with T1, MBP-tagged split mFAP fragment m17.
T1 chain: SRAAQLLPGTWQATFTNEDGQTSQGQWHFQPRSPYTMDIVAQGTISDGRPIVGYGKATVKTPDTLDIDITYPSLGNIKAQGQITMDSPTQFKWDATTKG

In assay [2] the target is T2, MBP-tagged split mFAP fragment m14.
T2 chain: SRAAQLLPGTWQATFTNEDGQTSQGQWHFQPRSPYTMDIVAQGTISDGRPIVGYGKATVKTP

For assay [3], the target named is T3, MBP-tagged split mFAP fragment m16.
T3 chain: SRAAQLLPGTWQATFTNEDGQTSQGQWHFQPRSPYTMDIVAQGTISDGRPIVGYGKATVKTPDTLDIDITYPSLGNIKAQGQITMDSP

No end group written: not given here. Bounds are passed on as bounds.

As a reminder, the Kd is the equilibrium constant for the complex coming apart. ENDFHGRLTGTLQRQE (domain or fragment, not fully specified) [MBP-tagged split mFAP fragment m8]: the dissociation constant Kd in assay [1] was at least 354 µM.

B1: MBP-tagged split mFAP fragment m58 (domain or fragment)
chain: DTLDIDITYPSLGNIKAQGQITMDSPTQFKWDATTKGENDFHGRLTGTLQRQE
modifications: not fully specified
Take B1: the Kd in assay [2] is at least 22 µM. With TQFKWDATTKGENDFHGRLTGTLQRQE (domain or fragment, not fully specified) [MBP-tagged split mFAP fragment m78], in assay [3], the Kd is at least 232 µM.
